{"source": "patent US20110086767A1", "about": "“MUTANTS OF GLYCOSIDE HYDROLASES AND USES THEREOF FOR SYNTHESIZING COMPLEX OLIGOSACCHARIDES AND DISACCHARIDE INTERMEDIATES” (Institut Pasteur, priority 2008, published 2011)", "key": {"[1]": {"system": "OC[C@H]1O[C@@](CO)(O[C@H]2O[C@H](CO)[C@@H](O)[C@H](O)[C@H]2O)[C@@H](O)[C@@H]1O", "test": "Kinetic parameters towards sucrose donor, double mutant A289P-F290C", "type": "biochemical, Neisseria polysaccharea", "conditions": "other: sucrose donor (0-500 mM), Eadie-Hofstee plot, 30° C., pH 7.0", "procedure": "(§1) The double mutants A289P-F290C, A289P-F290I and A289P-F290L were produced and purified, as previously described in Example 1-1. The protein content was determined by the Nanodrop ND-1000 spectrophotometer. These mutants were tested on sucrose alone or supplemented with α-D-GlcpNAc-OAll acceptor, and compared to wtAS and F290K. Assays were performed at 30° C. in 50 mM Tris-HCl buffer, pH=7.0.\n(§2) Enzyme assays were carried out in a total volume of 2 mL containing pure enzyme (0.073 mg, 0.153 mg and 0.092 mg when using A289P-F290C, A289P-F2901 and A289P-F290L, respectively).\n(§3) Kinetic studies of AS variants were performed in the presence of sucrose (0-500 mM). At regular time intervals (2-5 min), aliquots (200 μL) were removed, heated (95° C., 2 min) and centrifuged (18000 g, 5 min) All the samples were filtered on a 0.22 μm membrane and analyzed using HPLC material previously described. The initial rate of sucrose consumed, corresponding to the initial rate of fructose released, was expressed in mole of fructose released per minute and per gram of enzyme. The kinetic parameters kcat and Km were calculated using Eadie-Hofstee plot."}, "[2]": {"system": "Neisseria polysaccharea amylosucrase 1G5A (parent SEQ ID NO: 13) variants A289P-F290C, A289P-F290I and A289P-F290L", "test": "Kinetic parameters towards α-D-GlcpNAc-OAll acceptor, the three double mutants stated together", "type": "biochemical", "conditions": "sucrose 250 mM", "procedure": "as §1\n(§4) Enzyme assays were carried out in a total volume of 2 mL containing pure enzyme (0.037 mg, 0.076 mg and 0.046 mg when using A289P-F290C, A289P-F2901 and A289P-F290L, respectively).\n(§5) The kcat/Km (α-D-GlcpNAc-OAll) value was calculated from the initial rate of formation of desired disaccharide (α-D-Glcp-(1→4)-α-D-GlcpNAc-OAll), corresponding to the initial rate of α-D-GlcpNAc-OAll consumed. As saturation was not achieved with the mutants, efficiency was calculated by linear regression analysis of the velocity versus substrate concentration plot."}, "[3]": {"test": "Kinetic parameters towards α-D-GlcpNAc-OAll acceptor", "type": "biochemical", "conditions": "250 mM for both sucrose and α-D-GlcpNAc-OAll", "procedure": "as §4, §5"}, "[4]": {"test": "HPLC screening of the single-mutant amylosucrase library for glucosylation of D-GlcpNAc", "type": "biochemical", "procedure": "The protocol was established to enable the rapid identification of clones for which D-GlcpNAc glucosylation was improved. To obtain higher amounts of enzymes and facilitate detection of glucosylated compounds upon HPLC screening, mutants were produced in 96-DeepWell Format plates. Storage microplates containing monomutants were thawed and replicated to inoculate a starter culture in 96-well microplates containing, in each well, 150 μL LB medium supplemented with ampicillin (100 μg/mL). After growth for 24 h at 30° C. under agitation (200 rpm), plates were duplicated into 96-Deep Well plates containing, in each well, 1.1 mL LB medium supplemented with ampicillin (100 μg/mL) and IPTG (1 mM) to induce GST-AS expression. Cultures were then grown for 24 h at 30° C. under agitation (200 rpm). Plates were centrifuged (20 min, 3000 g, 4° C.) and the supernatant was removed. The cell pellet was resuspended in 200 μL of lysozyme (0.5 mg/mL), followed by freezing at −80° C. for 8 to 12 h. After thawing at room temperature, 100 μL of sucrose and 100 μL of acceptor (each at a final concentration of 73 mM) were added to each well. Enzymatic reaction was incubated at 30° C. during 24 h under agitation. The DeepWell plates were then centrifuged (20 min, 3000 g, 4° C.) and 300 μL of the supernatant was transferred to a filter micro-plate (PVDF 0.2 μm) to be clarified. […]\nEfficiency of the glucosylation reaction was evaluated by HPLC analysis of the acceptor reaction product synthesized when using D-GlcpNAc as acceptor using a Dionex P 680 series pump, a Shodex RI 101 series refractometer, a Dionex UVD 340 UV/Vis detector and an autosampler HTC PAL. […]\nFor each of the 7 selected positions, 19 single mutants were generated (corresponding to each possible amino acid change). […] Both sucrose consumption and disaccharide formation were determined in order to calculate the glucosylation rate defined as the molar ratio of monoglucosylated acceptor versus/sucrose consumed."}, "[5]": {"test": "HPLC screening of double-mutant libraries for variants able to glucosylate D-GlcpNAc", "type": "biochemical", "conditions": "α-D-Glcp-(1→4)-α-D-GlcpNAc (ED) from sucrose and D-GlcpNAc, microplate format"}, "[6]": {"conditions": "data from ref. 83, cited from earlier work"}, "[7]": {"test": "Glucosylation of α-D-GlcpNAc-OAll by purified F290D, F290K and ASNPwt (146 mM sucrose + 146 mM acceptor)", "type": "biochemical", "conditions": "purified enzyme; Sucrose=Acceptor=146 mM; compared with ASNPwt", "procedure": "All assays were performed at 30° C. in 50 mM Tris buffer, pH=7.0. For the acceptor reactions, F290D, F290K and ASNPwt (1G5A) were tested on α-D-GlcpNAc-OAll.\nComparison of products synthesized by wild-type and AS variants. Reactions were performed in the presence of 146 mM sucrose alone or supplemented with 146 mM acceptor. The purified wild-type or mutated GST/AS were employed at 0.5 U/mL. The reactions were stopped by heating at 95° C. for 5 min. The final mixture was centrifuged at 18 000 g for 10 min, filtered on 0.22 μm membrane and analyzed by HPLC, as previously described.\nSoluble and insoluble oligosaccharides produced during the reaction were identified by HPAEC using a Dionex Carbo-Pack PA100 column at 30° C. Before analysis, the insoluble fraction was solubilized in KOH at a final total sugar concentration of 10 g/kg. Mobile phase (150 mM NaOH) was set at 1 mL/min flow rate with a sodium acetate gradient (going from 6 to 500 mM within 120 min). Detection was performed using a Dionex ED40 module with a gold working electrode and an Ag/AgCl pH reference. Note that α-D-GlcpNAc-OAll (acceptor) and its derivatives are not oxidable products and thus are not detectable by HPAEC. Sucrose, glucose, fructose, α-D-GlcpNAc-OAll (acceptor) and its derivatives (glucosylation products) were quantified by HPLC, as previously described"}, "[8]": {"test": "Kinetic parameters towards sucrose donor", "type": "biochemical", "procedure": "as §2, §3"}}, "note": "Where two headings read alike, the source gives them in different places.", "data": [{"molecule": "Neisseria polysaccharea amylosucrase 1G5A (parent SEQ ID NO: 13) variant A289P-F290C (Neisseria polysaccharea; A297P/F298C/G545D)", "values": [{"measurement": "Km", "setting": "[1]", "value": 18.9, "unit": "mM"}]}, {"molecule": "C=CCO[C@H]1O[C@H](CO)[C@@H](O)[C@H](O)[C@H]1NC(C)=O", "note": "[α-D-GlcpNAc-OAll, allyl 2-acetamido-2-deoxy-α-D-glucopyranoside]", "values": [{"measurement": "increase of catalytic efficiency towards α-D-GlcpNAc-OAll compared to variant F290K", "setting": "[2]; three double mutants vs F290K", "value": 3, "unit": "fold"}, {"measurement": "increase of catalytic efficiency towards α-D-GlcpNAc-OAll compared to wtAS", "setting": "[2]; three double mutants vs wtAS", "value": "≤ 395", "unit": "fold"}]}, {"molecule": "wtAS: Wild type glycoside hydrolase: amylosucrase 1G5A from Neisseria polysaccharea, SEQ ID NO: 13 (protein, listed as Neisseria polysaccharea) SPNSQYLKTRILDIYTPEQRAGIEKSEDWRQFSRRMDTHFPKLMNELDSVYGNNEALLPMLEMLLAQAWQSYSQRNSSLKDIDIARENNPDWILSNKQVGGVCYVDLFAGDLKGLKDKIPYFQELGLTYLHLMPLFKCPEGKSDGGYAVSSYRDVNPALGTIGDLREVIAALHEAGISAVVDFIFNHTSNEHEWAQRCAAGDPLFDNFYYIFPDRRMPDQYDRTLREIFPDQHPGGFSQLEDGRWVWTTFNSFQWDLNYSNPWVFRAMAGEMLFLANLGVDILRMDAVAFIWKQMGTSCENLPQAHALIRAFNAVMRIAAPAVFFKSEAIVHPDQVVQYIGQDECQIGYNPLQMALLWNTLATREVNLLHQALTYRHNLPEHTAWVNYVRSHDDIGWTFADEDAAYLGISGYDHRQFLNRFFVNRFDGSFARGVPFQYNPSTGDCRVSGTAAALVGLAQDDPHAVDRIKLLYSIALSTGGLPLIYLGDEVGTLNDDDWSQDSNKSDDSRWAHRPRYNEALYAQRNDPSTAAGQIYQDLRHMIAVRQSNPRFDGGRLVTFNTNNKHIIGYIRNNALLAFGNFSEYPQTVTAHTLQAMPFKAHDLIGGKTVSLNQDLTLQPYQVMWLEIA", "values": [{"measurement": "V250mM (initial rate of acceptor consumption)", "setting": "[3]", "value": 290, "unit": "µmol/min/g"}, {"measurement": "glucosylation rate (formation of α-D-Glcp-(1→4)-D-GlcpNAc)", "setting": "[4]; molar ratio of monoglucosylated acceptor versus sucrose consumed, sucrose and D-GlcpNAc 73 mM each, 30° C., 24 h, microtiter format", "value": 2, "unit": "%"}, {"measurement": "Glusosylation Yield to synthesize ED", "setting": "[5]", "value": 2, "unit": "%"}, {"measurement": "V250mM (initial rate of sucrose consumption)", "setting": "[6]; 250 mM sucrose", "value": 900, "unit": "µmol/min/g"}, {"measurement": "behaviour (at high concentration)", "setting": "[6]; sucrose donor", "value": "saturation"}]}, {"molecule": "F290D: single mutant F290D of N. polysaccharea amylosucrase 1G5A (protein) SPNSQYLKTRILDIYTPEQRAGIEKSEDWRQFSRRMDTHFPKLMNELDSVYGNNEALLPMLEMLLAQAWQSYSQRNSSLKDIDIARENNPDWILSNKQVGGVCYVDLFAGDLKGLKDKIPYFQELGLTYLHLMPLFKCPEGKSDGGYAVSSYRDVNPALGTIGDLREVIAALHEAGISAVVDFIFNHTSNEHEWAQRCAAGDPLFDNFYYIFPDRRMPDQYDRTLREIFPDQHPGGFSQLEDGRWVWTTFNSFQWDLNYSNPWVFRAMAGEMLFLANLGVDILRMDAVADIWKQMGTSCENLPQAHALIRAFNAVMRIAAPAVFFKSEAIVHPDQVVQYIGQDECQIGYNPLQMALLWNTLATREVNLLHQALTYRHNLPEHTAWVNYVRSHDDIGWTFADEDAAYLGISGYDHRQFLNRFFVNRFDGSFARGVPFQYNPSTGDCRVSGTAAALVGLAQDDPHAVDRIKLLYSIALSTGGLPLIYLGDEVGTLNDDDWSQDSNKSDDSRWAHRPRYNEALYAQRNDPSTAAGQIYQDLRHMIAVRQSNPRFDGGRLVTFNTNNKHIIGYIRNNALLAFGNFSEYPQTVTAHTLQAMPFKAHDLIGGKTVSLNQDLTLQPYQVMWLEIA", "values": [{"measurement": "increase of glucosylation rate compared to the wild type", "setting": "[4]; acceptor D-GlcpNAc", "value": 45, "unit": "fold"}, {"measurement": "times more efficient for α-D-GlcpNAc-OAll glucosylation", "setting": "[7]", "value": 10, "unit": "times"}, {"measurement": "times more efficient to form α-D-Glcp-(1→4)-D-GlcpNAc-OAll", "setting": "[7]", "value": 20, "unit": "times"}]}, {"molecule": "A289P-F290L: double mutant A289P, F290L of N. polysaccharea amylosucrase (protein) SPNSQYLKTRILDIYTPEQRAGIEKSEDWRQFSRRMDTHFPKLMNELDSVYGNNEALLPMLEMLLAQAWQSYSQRNSSLKDIDIARENNPDWILSNKQVGGVCYVDLFAGDLKGLKDKIPYFQELGLTYLHLMPLFKCPEGKSDGGYAVSSYRDVNPALGTIGDLREVIAALHEAGISAVVDFIFNHTSNEHEWAQRCAAGDPLFDNFYYIFPDRRMPDQYDRTLREIFPDQHPGGFSQLEDGRWVWTTFNSFQWDLNYSNPWVFRAMAGEMLFLANLGVDILRMDAVPLIWKQMGTSCENLPQAHALIRAFNAVMRIAAPAVFFKSEAIVHPDQVVQYIGQDECQIGYNPLQMALLWNTLATREVNLLHQALTYRHNLPEHTAWVNYVRSHDDIGWTFADEDAAYLGISGYDHRQFLNRFFVNRFDGSFARGVPFQYNPSTGDCRVSGTAAALVGLAQDDPHAVDRIKLLYSIALSTGGLPLIYLGDEVGTLNDDDWSQDSNKSDDSRWAHRPRYNEALYAQRNDPSTAAGQIYQDLRHMIAVRQSNPRFDGGRLVTFNTNNKHIIGYIRNNALLAFGNFSEYPQTVTAHTLQAMPFKAHDLIGGKTVSLNQDLTLQPYQVMWLEIA", "values": [{"measurement": "V250mM (initial rate of acceptor consumption)", "setting": "[3]", "value": "67 300 μmol/min/g"}, {"measurement": "Glusosylation Yield to synthesize ED", "setting": "[5]", "value": 100, "unit": "%"}, {"measurement": "V250mM (initial rate of sucrose consumption)", "setting": "[8]; 250 mM sucrose", "value": 1717, "unit": "µmol/min/g"}, {"measurement": "behaviour (at high concentration)", "setting": "[8]; sucrose donor alone", "value": "saturation"}]}]}
